# Measured values taken from PMC6637906.
# pKd: −log10 of the molar value.
# System: GST-TfmR (Xanthomonas citri subsp. citri 306)
# Test: EMSA
# Conditions: LightShift Chemiluminescent EMSA Kit per manufacturer; 1-2 ng biotin DNA, 20 pmol GST-TfmR, 15 min (Fig. 6); buffer, salt, pH and temperature not stated
substance,measurement,value
pmhpC/fadE promoter,pKd,7.06
